Source: article PMC11333492

Legend:
[1] = biological target: B/Memphis/13/2003 FluPol PA-NE332-333AA (PB2, PA mutant, PB1-luc2); conditions: parent: est. 100; read off a plot
[2] = biological target: B/Memphis/13/2003 FluPol PA-NENF332-335AAAA (PB2, PA mutant, PB1-luc2); conditions: parent: est. 100; read off a plot
[3] = biological target: B/Memphis/13/2003 FluPol PA-NY360-361AA (PB2, PA mutant, PB1-luc2); conditions: parent: est. 100; read off a plot
[4] = biological target: FluPolB (influenza B/Memphis/13/2003 polymerase heterotrimer) (influenza B/Memphis/13/2003) (UniProt Q5V8Z9); experiment: mass photometry

Substance: B/Memphis/13/2003 FluPol wild type (PB2, PA, PB1-luc1) for the split luciferase assays (from UniProt Q5V8Z9;Q5V8Y6;Q5V8X3) PA:N332A; PA:E333A
- percent of parent [1]: 33 % FluPol-WT

Substance: B/Memphis/13/2003 FluPol wild type (PB2, PA, PB1-luc1) for the split luciferase assays (from UniProt Q5V8Z9;Q5V8Y6;Q5V8X3) PA:N332A; PA:E333A; PA:N334A; PA:F335A
- percent of parent [2]: 9 % FluPol-WT

Substance: B/Memphis/13/2003 FluPol wild type (PB2, PA, PB1-luc1) for the split luciferase assays (from UniProt Q5V8Z9;Q5V8Y6;Q5V8X3) PA:N360A; PA:Y361A
- percent of parent [3]: 6 % FluPol-WT

Substance: FluPolB (influenza B/Memphis/13/2003 polymerase heterotrimer) (from UniProt Q5V8Z9;Q5V8Y6;Q5V8X3) (complex)
- percent dimers [4]: 14%
